# Values of other authors as cited in PMC6191488.
# Target: IgE Fc (Homo sapiens) (UniProt P01854)
# Sequence of UniProt P01854 (P01854 104-427): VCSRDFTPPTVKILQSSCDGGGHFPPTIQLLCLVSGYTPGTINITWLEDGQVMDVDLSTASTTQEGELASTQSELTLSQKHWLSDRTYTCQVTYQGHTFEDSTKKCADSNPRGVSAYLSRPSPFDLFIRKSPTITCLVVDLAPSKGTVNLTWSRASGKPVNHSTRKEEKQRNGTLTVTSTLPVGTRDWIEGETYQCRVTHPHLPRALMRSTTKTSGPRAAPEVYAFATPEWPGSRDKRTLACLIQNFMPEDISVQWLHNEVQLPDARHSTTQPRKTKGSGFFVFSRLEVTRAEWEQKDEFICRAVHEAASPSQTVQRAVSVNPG
substance,measurement,value
FcεRI alpha chain ECD (from UniProt P12319),Kd,0.37 nM
